Laboratory results: article PMC6265486 (Nucleic Acids Research, 2018)

Experiments:
[1] = target: T1, human mtSSB (Homo sapiens) (UniProt Q04837); experiment: AFM; conditions: Anisotropy: 30 mM HEPES-KOH pH 7.5, 1 mM 2-mercaptoethanol, 5 mM MgCl2, 0.01% NP-40, 50 mM NaCl, 20 nM oligo, 20 C. AFM/DREEM: incubation in 20 mM HEPES pH …
T1 sequence: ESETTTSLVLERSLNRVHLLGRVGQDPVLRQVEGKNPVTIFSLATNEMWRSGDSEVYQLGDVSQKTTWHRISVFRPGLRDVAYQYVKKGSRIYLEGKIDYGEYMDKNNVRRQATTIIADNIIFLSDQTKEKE

[2] = target: the molecule itself; experiment: AFM volume measurement; free mtSSB (8.4 nM tetramers) diluted in 20 mM HEPES (pH 7.5), 100 mM NaCl, deposited on freshly cleaved mica, imaged in air (AC mode); AFM volume converted to molecular weight with a calibration curve
human mtSSB [3] = target: T2, human mtSSB (Homo sapiens, UniProt Q04837 17-148); experiment: fluorescence anisotropy; 5 mM MgCl2, 50 mM NaCl; tetramers; Anisotropy: 30 mM HEPES-KOH pH 7.5, 1 mM 2-mercaptoethanol, 5 mM MgCl2, 0.01% NP-40, 50 mM NaCl, 20 nM oligo, 20 C. AFM/DREEM: incubation in 20 mM HEPES pH 7.5
T2 sequence: T1 sequence

human mtSSB [4] = target: T2, human mtSSB; experiment: fluorescence anisotropy; 5 mM MgCl2, 50 mM NaCl; Anisotropy: 30 mM HEPES-KOH pH 7.5, 1 mM 2-mercaptoethanol, 5 mM MgCl2, 0.01% NP-40, 50 mM NaCl, 20 nM oligo, 20 C. AFM/DREEM: incubation in 20 mM HEPES pH 7.5
human mtSSB [5] = target: T2, human mtSSB; experiment: fluorescence anisotropy; 5 mM MgCl2, 50 mM NaCl; tetramers; Hill coefficient 2.00; Anisotropy: 30 mM HEPES-KOH pH 7.5, 1 mM 2-mercaptoethanol, 5 mM MgCl2, 0.01% NP-40, 50 mM NaCl, 20 nM oligo, 20 C. AFM/DREEM: incubation in 20 mM HEPES pH 7.5
E. coli SSB [6] = target: T3, E. coli SSB (Escherichia coli, UniProt P0AGE0 1-178); experiment: fluorescence anisotropy; 5 mM MgCl2, 50 mM NaCl; tetramers; Hill coefficient 1.84; Anisotropy: 30 mM HEPES-KOH pH 7.5, 1 mM 2-mercaptoethanol, 5 mM MgCl2, 0.01% NP-40, 50 mM NaCl, 20 nM oligo, 20 C. AFM/DREEM: incubation in 20 mM HEPES pH 7.5
T3 sequence (P0AGE0 whole entry): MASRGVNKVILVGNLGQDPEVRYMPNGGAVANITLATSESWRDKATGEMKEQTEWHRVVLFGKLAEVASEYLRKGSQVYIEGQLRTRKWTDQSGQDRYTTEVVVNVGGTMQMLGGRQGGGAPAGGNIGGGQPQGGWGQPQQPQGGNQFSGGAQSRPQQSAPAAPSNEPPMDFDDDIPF

E. coli SSB [7] = target: T3, E. coli SSB; experiment: AFM/DREEM; 100 mM NaCl; 10 mM Mg(OAc)2 in imaging buffer; 35% one strand wrapped, 65% two; Anisotropy: 30 mM HEPES-KOH pH 7.5, 1 mM 2-mercaptoethanol, 5 mM MgCl2, 0.01% NP-40, 50 mM NaCl, 20 nM oligo, 20 C. AFM/DREEM: incubation in 20 mM HEPES pH 7.5
human mtSSB [8] = target: T2, human mtSSB; experiment: AFM/DREEM; 100 mM NaCl; 10 mM Mg(OAc)2 in imaging buffer; 85% one strand wrapped, 15% two; Anisotropy: 30 mM HEPES-KOH pH 7.5, 1 mM 2-mercaptoethanol, 5 mM MgCl2, 0.01% NP-40, 50 mM NaCl, 20 nM oligo, 20 C. AFM/DREEM: incubation in 20 mM HEPES pH 7.5

linear 2030-bp DNA with 37-nt ssDNA gap
binding signal (KSP/KNSP (gap vs duplex specificity)) [1]: 14500

B1: human mitochondrial single-stranded DNA binding protein (natural protein, UniProt Q04837 17-148, looked up)
chain: T1 sequence
stoichiometry N [2]: 4

ATGCTAGCTTGGCTGTGACTTTAAACCTGTCGTGCCAGCT (ssDNA, fluorescein on internal T21) [D1-F 40-nt ssDNA]
Kd (human mtSSB [3]): 1.8 ± 0.9 nM

B2: D1-F/D2 40-bp dsDNA (dsDNA)
DNA 1: ATGCTAGCTTGGCTGTGACTTTAAACCTGTCGTGCCAGCT
DNA 2: AGCTGGCACGACAGGTTTAAAGTCACAGCCAAGCTAGCAT
modifications: fluorescein on internal T21 of D1
binding result (human mtSSB [4]): no binding

B3: 5'-fluorescein 90-nt oligonucleotide (ssDNA)
DNA: TAATGCTATCACTATTCGTAGACTTGACCACACCTTGTCAGCTCACGCTCCAAATGAAAGTATAGCTAAACAGGTTATTGACCATATGCA
modifications: fluorescein on 5'-terminal T
Kd (human mtSSB [5]): 14.7 ± 0.5 nM
Kd (E. coli SSB [6]): 25.4 ± 1.3 nM

B4: 90-nt oligonucleotide (ssDNA)
DNA: B3 DNA
binding result (E. coli SSB [7]): binds
binding result (human mtSSB [8]): binds
